# Data from patent US20040224408A1, “THAP proteins as nuclear receptors for chemokines and roles in transcriptional regulation, cell proliferation and cell differentiation” (published 2004).
# T1: THAP1 THAP domain (Homo sapiens, UniProt Q9NVV9 SEQ:1-90)
# T1 sequence: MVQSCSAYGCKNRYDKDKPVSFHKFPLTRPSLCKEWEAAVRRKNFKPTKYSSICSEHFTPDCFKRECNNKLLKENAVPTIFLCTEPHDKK
# T2: human THAP1 (THanatos (death)-Associated Protein-1), full length (human, UniProt Q9NVV9 1-213)
# T2 construct: also called hTHAP1; FLJ10477
# T2 sequence: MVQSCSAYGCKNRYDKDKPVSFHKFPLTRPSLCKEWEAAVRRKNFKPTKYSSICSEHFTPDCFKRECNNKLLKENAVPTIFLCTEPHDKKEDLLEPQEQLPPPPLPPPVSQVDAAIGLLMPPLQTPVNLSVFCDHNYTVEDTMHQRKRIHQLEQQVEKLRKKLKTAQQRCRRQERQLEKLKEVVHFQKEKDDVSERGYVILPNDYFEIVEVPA
# T3: THAP1ΔQRCRR mutant (deletion of residues 168-172) (human, UniProt Q9NVV9 1-213)
# T3 construct: Tested as a Gal4-BD fusion (pGBKT7), as in vitro translated protein and as an EGFP fusion; also called THAP1?QRCRR; THAP1?(QRCRR)
# T3 sequence: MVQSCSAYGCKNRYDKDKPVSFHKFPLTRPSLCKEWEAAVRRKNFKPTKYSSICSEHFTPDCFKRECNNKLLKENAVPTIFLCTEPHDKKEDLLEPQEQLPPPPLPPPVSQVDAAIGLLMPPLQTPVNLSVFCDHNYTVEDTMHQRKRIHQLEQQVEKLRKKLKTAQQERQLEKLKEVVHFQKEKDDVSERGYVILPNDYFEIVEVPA
# T4: THAP1-C1 deletion mutant (amino acids 90-213) (human, UniProt Q9NVV9 90-213)
# T4 construct: Tested as a Gal4-BD or Gal4-AD fusion, as in vitro translated 35S-labelled protein and as an EGFP fusion; also called THAP1ΔTHAP; THAP1?THAP
# T4 sequence: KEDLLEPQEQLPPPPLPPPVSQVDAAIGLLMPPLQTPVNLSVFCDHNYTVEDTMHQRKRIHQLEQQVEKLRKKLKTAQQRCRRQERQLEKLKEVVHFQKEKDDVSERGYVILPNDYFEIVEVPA
# T5: THAP1-C2 deletion mutant (amino acids 120-213) (human, UniProt Q9NVV9 120-213)
# T5 construct: Tested as a Gal4-BD or Gal4-AD fusion, as in vitro translated 35S-labelled protein and as an EGFP fusion
# T5 sequence: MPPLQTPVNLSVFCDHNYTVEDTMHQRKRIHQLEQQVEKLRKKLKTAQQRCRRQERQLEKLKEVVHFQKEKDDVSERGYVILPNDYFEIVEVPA
# T6: THAP1-N2 deletion mutant (amino acids 1-166) (human, UniProt Q9NVV9 1-166)
# T6 construct: Tested as a Gal4-BD or Gal4-AD fusion, as in vitro translated 35S-labelled protein and as an EGFP fusion
# T6 sequence: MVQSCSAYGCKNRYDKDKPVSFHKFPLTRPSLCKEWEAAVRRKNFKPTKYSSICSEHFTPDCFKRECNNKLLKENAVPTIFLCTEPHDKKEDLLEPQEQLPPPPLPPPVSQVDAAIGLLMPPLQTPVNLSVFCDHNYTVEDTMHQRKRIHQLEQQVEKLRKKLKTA
# T7: THAP1-N3 deletion mutant (amino acids 1-192) (human, UniProt Q9NVV9 1-192)
# T7 construct: Tested as a Gal4-BD or Gal4-AD fusion, as in vitro translated 35S-labelled protein and as an EGFP fusion
# T7 sequence: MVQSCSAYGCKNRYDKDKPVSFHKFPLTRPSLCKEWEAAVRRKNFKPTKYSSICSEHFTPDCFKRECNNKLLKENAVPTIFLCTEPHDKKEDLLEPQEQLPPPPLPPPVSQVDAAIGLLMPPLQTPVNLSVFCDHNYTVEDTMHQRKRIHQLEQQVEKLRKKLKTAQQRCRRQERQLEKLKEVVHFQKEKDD
# T8: THAP1-N1 deletion mutant (amino acids 1-90) (human, UniProt Q9NVV9 1-90)
# T8 construct: Tested as a Gal4-BD or Gal4-AD fusion, as in vitro translated 35S-labelled protein and as an EGFP fusion
# T8 sequence: T1 sequence
# T9: THAP1-C3 deletion mutant (amino acids 143-213) (human, UniProt Q9NVV9 143-213)
# T9 construct: Tested as a Gal4-BD or Gal4-AD fusion, as in vitro translated 35S-labelled protein and as an EGFP fusion
# T9 sequence: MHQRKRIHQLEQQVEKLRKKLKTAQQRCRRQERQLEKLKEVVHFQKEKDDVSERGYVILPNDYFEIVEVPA
# B1: wild-type THRE probe 3 (dsDNA)
# DNA 1: AGCAAGTAAGGGCAAACTACTTCAT
# DNA 2: ATGAAGTAGTTTGCCCTTACTTGCT
# B2: 3mut1 (dsDNA)
# DNA 1: AGCAAGTAATTTCAAACTACTTCAT
# DNA 2: ATGAAGTAGTTTGAAATTACTTGCT
# B3: Par4 leucine zipper/death domain (Par4DD, amino acids 250-342) (other)
# chain: GFPRYNRDANVSGTLVSSSTLEKKIEDLEKEVVTERQENLRLVRLMQDKEEMIGKLKEEIDLLNRDLDDIEDENEQLKQENKTLLKVVGQLTR
# notes: also called myc-Par4DD; mycPar4DD
# B4: GST-Par4DD fusion protein (pGEX-2T-Par4DD, Par4 amino acids 250-342) (other)
# chain: B3 chain
# notes: Expressed in E. coli DH5alpha and immobilized on glutathione sepharose; not shown: Glutathione S-transferase (GST) encoded by the pGEX-2T prokaryotic expression vector (Amersham Pharmacia Biotech); N-ter
# What was measured:
# [1] = target: T1, THAP1 THAP domain; assay: EMSA; 20 mM Tris-HCl pH 7.5, 100 mM KCl, poly(dI-dC), room temperature; abrogated by 1,10-phenanthroline, restored by Zn; self-competed by 50-250x unlabelled probe; details: tags: C-terminal His6 (pET-21c); label: 32P
# Description: Binding reactions were carried out for 10 minutes at room temperature in 20 μl binding buffer (20 mM Tris-HCl pH 7.5, 100 mM KCl, 0.1% NP-40, 100 μg/ml BSA, 2.5 mM DTT, 5% glycerol, 200 ng poly (dI-dC)). Electrophoresis was performed on 8% (29:1) polyacrylamide gels containing 5% glycerol. Gels were run in 0.25×TBE at 150V and 4° C., dried and exposed on a phosphoimager screen (Molecular Dynamics). Sequences of wild type and mutant THRE oligonucleotides used in EMSA experiments were as follow (mutations are indicated in bold): wild-type probe 3, 5′-[…]-3′ (SEQ ID NO: 313); mutant probe 3mut1, 5′-[…]-3′ (SEQ ID NO: 314); mutant probe 3mut3, 5′-[…]-3′ (SEQ ID NO: 319); mutant probe 3mut4, 5′-[…]-3′ (SEQ ID NO: 320); mutant probe 3mut14, 5′-[…]-3′ (SEQ ID NO: 321); mutant probe 3mut5, 5′-[…]-3′ (SEQ ID NO: 322).
# For competition experiments, 50-, 150-, and 250-fold molar excess of unlabelled wild-type (THRE competitor, probe 3) or mutant (non-specific competitor, probe 3mut1) THRE oligonucleotides were added to the reaction mixture just before the addition of the probe.
# Since the THAP domain is characterized by a C2-CH conserved motif that may function as a Zn-binding site, we then determined whether DNA-binding activity of the THAP domain is Zn-dependent. […]
# [2] = target: T1, THAP1 THAP domain; assay: EMSA; also no competition at 50-250x molar excess; details: tags: C-terminal His6 (pET-21c); label: 32P
# Description: To confirm that the THAP domain is a novel sequence specific DNA-binding domain, electrophoretic mobility shift assays (EMSA) were carried out using wild-type or mutant THAP domain responsive elements (THRE) determined by SELEX (see Example 28 and FIGS. 18 and 24). Double-stranded probes used in EMSA experiments were purified on 12% polyacrylamide gels, ³²P end labeled with T4 polynucleotide kinase and quantified by Cerenkov counting. About 20 ng of purified THAP domain from human THAP1 (prepared as described in Example 28) was incubated with 30000 cpm of the appropriate probe (about 2 ng). Binding reactions were carried out for 10 minutes at room temperature in 20 μl binding buffer (20 mM Tris-HCl pH 7.5, 100 mM KCl, 0.1% NP-40, 100 μg/ml BSA, 2.5 mM DTT, 5% glycerol, 200 ng poly (dI-dC)). Electrophoresis was performed on 8% (29:1) polyacrylamide gels containing 5% glycerol. Gels were run in 0.25×TBE at 150V and 4° C., dried and exposed on a phosphoimager screen (Molecular Dynamics). […]
# [3] = target: T2, human THAP1 (THanatos …); assay: yeast two-hybrid, both orientations (His/Ade selection)
# From the text: We then examined whether the leucine zipper/death domain at the C-terminus of Par4, previously shown to be involved in Par4 binding to WT-1 and aPKC, was required for the interaction between THAP1 and Par4. Two Par4 mutants were constructed for that purpose, Par4A and Par4DD. Par4A lacks the leucine zipper/death domain while Par4DD contains this domain. pGBKT7-Par4A(amino acids 1-276) and pGADT7-Par4A. were constructed by sub-cloning a EcoRI-BglII fragment from pGADT7-Par4 into the EcoRI and BamHI sites of pGBKT7 and pGADT7. Par4DD (amino acids 250-342) was amplified by PCR, using pGBKT7-Par4 as template, with primers Par4.4 (5′-[…]-3′) (SEQ ID NO: 193) and Par4.5, and cloned into the EcoRI and BamHI sites of pGBKT7 and pGADT7 to obtain pGBKT7-Par4DD and pGADT7-Par4DD. Two-hybrid interaction between THAP1 and Par4 mutants was tested by cotransformation of AH109 with pGBKT7-THAP1 and pGADT7-Par4A or pGADT7-Par4DD and selection of transformants by His and Ade double auxotrophy according to manufacturer's instructions ([…] two-hybrid system 3, Clontech). […] Similar results were obtained when two-hybrid experiments were performed in the opposite orientation using Par4 or Par4 mutants (Par4A and Par4DD) as baits instead of THAP1 (FIG. 3A).
# [4] = target: T3, THAP1ΔQRCRR mutant (deletion of …); assay: yeast two-hybrid
# Description: (§1) Two-hybrid interaction between THAP1 mutants and Par4DD was tested by cotransformation of AH109 with pGBKT7-THAP1-C1, -C2, -C3, -N1, -N2 or -N3 and pGADT7-Par4DD and selection of transformants by His and Ade double auxotrophy according to manufacturer's instructions ([…] two-hybrid system 3, Clontech).
# for mutant THAP1ΔQRCRR. The resulting PCR fragments were digested with EcoRI and BamHI, and cloned in frame downstream of the Gal4 Binding Domain (Gal4-BD) in pGBKT7 two-hybrid vector (Clontech) to generate pGBKT7-THAP1-RR/AA and −Δ(QRCRR), or downstream of the Enhanced Green Fluorescent Protein (EGFP) ORF in pEGFP.C2 vector (Clontech) to generate pEGFP.C2-THAP1-RR/AA and −Δ(QRCRR). THAP1 RR/AA and THAP1ΔQRCRR THAP1 mutants were then tested in the three THAP1/Par4 interaction assays (two-hybrid assay, in vitro THAP1/Par4 interaction assay, in vivo THAP1/Par4 interaction assay) as described above for the THAP1-C1, -C2, -C3, -N1, -N2 or -N3 mutants.
# [5] = target: T4, THAP1-C1 deletion mutant (amino acids …); assay: yeast two-hybrid, pGBKT7-THAP1 mutant with pGADT7-Par4DD
# Description: as §1
# [6] = target: T5, THAP1-C2 deletion mutant (amino acids …); assay: as above
# Description: as §1
# [7] = target: T6, THAP1-N2 deletion mutant (amino acids …); assay: as above
# Description: as §1
# [8] = target: T7, THAP1-N3 deletion mutant (amino acids …); assay: as above
# Description: as §1
# [9] = target: T8, THAP1-N1 deletion mutant (amino acids …); assay: as above
# Description: as §1
# [10] = target: T9, THAP1-C3 deletion mutant (amino acids …); assay: as above
# Description: as §1
# [11] = target: T6, THAP1-N2 deletion mutant (amino acids …); assay: GST pull-down, immobilized GST-Par4DD, in vitro translated 35S-labelled mutant
# Description: (§2) THAP1 mutants were also tested in the in vitro THAP1/Par4 interaction assay. In vitro-translated THAP1 mutants were generated with the TNT-coupled reticulocyte lysate system (Promega, Madison, Wis., USA) using pGBKT7-THAP1-C1, -C2, -C3, -N1, -N2 or -N3 vector as template. 25 μl of each ³⁵S-labelled THAP1 mutant was incubated with immobilized GST or GST-Par4 protein overnight at 4° C., in the following binding buffer: 10 mM NaPO4 pH 8.0, 140 mM NaCl, 3 mM MgCl2, 1 mM dithiothreitol (DTT), 0.05% NP40, and 0.2 mM phenylmethyl sulphonyl fluoride (PMSF), 1 mM Na Vanadate, 50 mM β Glycerophosphate, 25 μg/ml chimotrypsine, 5 μg/ml aprotinin, 10 μg/ml Leupeptin. Beads were then washed 5 times in 1 ml binding buffer. Bound proteins were eluted with 2×Laemmli SDS-PAGE sample buffer, fractionated by 10% SDS-PAGE and visualized by fluorography using Amplify (Amersham Pharmacia Biotech). As expected, THAP1-C1, -C2, -C3, -and -N3 interacted with GST/Par4DD (FIG. 4B).
# [12] = target: T8, THAP1-N1 deletion mutant (amino acids …); assay: as above
# Description: as §2
# [13] = target: T3, THAP1ΔQRCRR mutant (deletion of …); assay: in vitro THAP1/Par4 interaction assay (GST pull-down with GST-Par4DD)
# Description: as §2
# for mutant THAP1ΔQRCRR. The resulting PCR fragments were digested with EcoRI and BamHI, and cloned in frame downstream of the Gal4 Binding Domain (Gal4-BD) in pGBKT7 two-hybrid vector (Clontech) to generate pGBKT7-THAP1-RR/AA and −Δ(QRCRR), or downstream of the Enhanced Green Fluorescent Protein (EGFP) ORF in pEGFP.C2 vector (Clontech) to generate pEGFP.C2-THAP1-RR/AA and −Δ(QRCRR). […]
binder,measurement,setting,value
B1,binding result,[1],binds
B2,binding result,[2],no binding
B3,binding result,[3],binds
same,binding result,[4],no binding
same,binding result,[5],binds
same,binding result,[6],binds
same,binding result,[7],no binding
same,binding result,[8],binds
same,binding result,[9],no binding
same,binding result,[10],binds
B4,binding result,[11],no binding
same,binding result,[12],no binding
same,binding result,[13],no binding
